From paper PMC8258697 (The Journal of Biological Chemistry, 2021)
“And” between values parts separate entries of the source, which are not always exact repeats. Equal values may be shown once.

Columns and labels:
[1] = molecular target: the molecule itself; assay: SEC; size exclusion chromatography during purification; 16/600 Superdex75 (and 16/600 Superdex200 for sGFP-RXRα) in 25 mM Hepes pH 7.5, 150 mM KF, 10% glycerol, 5 mM DTT
[2] = molecular target: T1, biotinylated RXRα LBD (N-terminal Avi-tag) (human, UniProt P19793-1 226-462, biotin on the Lys residue in the Avi-tag); assay: FRET
T1 chain: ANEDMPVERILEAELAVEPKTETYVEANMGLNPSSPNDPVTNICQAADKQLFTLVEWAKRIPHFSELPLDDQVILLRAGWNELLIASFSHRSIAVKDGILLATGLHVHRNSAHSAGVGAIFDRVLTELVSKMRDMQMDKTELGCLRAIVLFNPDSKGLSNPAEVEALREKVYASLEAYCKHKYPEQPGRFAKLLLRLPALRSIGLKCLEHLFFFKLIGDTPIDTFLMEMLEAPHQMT

sGFP-PPARα LBD = molecular target: T2, sGFP-PPARα LBD (human, UniProt Q07869-1 198-468); assay: AlphaScreen or HTRF; LBD:LBD dimer formation; biotinylated RXRα LBD (0.375 nM) coupled to Tb-SA (0.75 nM) as FRET donor; sGFP-PPAR LBD titrated up to 4.8 μM, total sGFP kept constant with free sGFP; no ligand; HTRF assay buffer with 0.1% CHAPS and 1% DMSO; 1 h at RT; apparent Kd from the inflection point; settings: both partners purified
T2 construct: PPARα LBD, human, UniProt Q07869-1, residues 198-468; source: E. coli T7 express, coexpressed with GroEL/ES, purified (Ni IMAC, TEV, reverse IMAC, SEC); not shown: His10, N-terminal, cleaved; sGFP, N-terminal, kept
T2 sequence (looked up): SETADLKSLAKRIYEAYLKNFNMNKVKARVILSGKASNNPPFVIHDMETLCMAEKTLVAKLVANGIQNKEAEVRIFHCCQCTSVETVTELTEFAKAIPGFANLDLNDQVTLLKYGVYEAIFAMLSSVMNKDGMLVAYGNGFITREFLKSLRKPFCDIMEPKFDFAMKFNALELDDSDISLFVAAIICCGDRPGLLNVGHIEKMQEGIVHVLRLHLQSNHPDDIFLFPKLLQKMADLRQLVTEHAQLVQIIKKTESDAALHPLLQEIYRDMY

sGFP-PPARβ/δ LBD = molecular target: T3, sGFP-PPARβ/δ LBD (human, UniProt Q03181-1 170-441); assay: as above; settings: both partners purified
T3 construct: PPARβ/δ LBD, human, UniProt Q03181-1, residues 170-441; also called PPARδ; source: E. coli T7 express, coexpressed with GroEL/ES, purified (Ni IMAC, TEV, reverse IMAC, SEC); not shown: His10, N-terminal, cleaved; sGFP, N-terminal, kept
T3 sequence (looked up): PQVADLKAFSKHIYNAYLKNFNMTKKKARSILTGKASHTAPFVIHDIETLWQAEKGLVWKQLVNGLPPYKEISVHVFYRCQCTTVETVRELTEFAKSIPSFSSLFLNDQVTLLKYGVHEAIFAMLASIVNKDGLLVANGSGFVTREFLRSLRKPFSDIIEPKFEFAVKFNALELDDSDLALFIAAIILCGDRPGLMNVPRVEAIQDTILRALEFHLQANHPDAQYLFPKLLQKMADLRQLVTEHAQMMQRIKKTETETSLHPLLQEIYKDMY

[3] = molecular target: T4, biotinylated CBP-1 cofactor peptide (CREB-binding protein coactivator motif 1) (N-terminal biotin); assay: AlphaScreen or HTRF; as a27, with SR11237 (up to 100 μM) titrated together with unlabeled RXRα total mutant LBD (up to 8 μM); referenced to isolated sGFP-PPARγ LBD activated by rosiglitazone; settings: both partners purified
T4 construct: coupled to Tb-streptavidin in the assay; also called CBP-1 peptide; CBP-derived peptide; source: bought: Eurogentec GmbH
T4 peptide: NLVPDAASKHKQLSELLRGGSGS

RXRα LBD = molecular target: T5, RXRα LBD (Homo sapiens, UniProt P19793); assay: LBD:LBD heterodimer formation HTRF assay, sGFP-PPAR LBD titrated against biotinylated RXRα LBD coupled to Tb-SA; format: binding; settings: sGFP-PPAR LBD titrated up to […]; 0.375 nM RXRα; no ligand; read-out: apparent Kd of heterodimer formation with RXRα LBD
T5 construct: His10-tag with TEV site (N, cleaved yes); made in house; host or cells: E. coli T7 express (co-expressed with GroEL/ES)
T5 sequence (P19793 226-462): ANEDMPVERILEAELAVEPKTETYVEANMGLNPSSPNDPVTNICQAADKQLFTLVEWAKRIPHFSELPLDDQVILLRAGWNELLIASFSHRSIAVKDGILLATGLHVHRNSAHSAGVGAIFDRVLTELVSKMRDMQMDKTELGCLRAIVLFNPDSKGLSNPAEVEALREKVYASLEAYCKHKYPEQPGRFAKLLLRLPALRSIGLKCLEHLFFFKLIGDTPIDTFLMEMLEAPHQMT

B1: sGFP-RXRα LBD wildtype (domain or fragment, human, UniProt P19793-1 226-462, looked up)
chain: ANEDMPVERILEAELAVEPKTETYVEANMGLNPSSPNDPVTNICQAADKQLFTLVEWAKRIPHFSELPLDDQVILLRAGWNELLIASFSHRSIAVKDGILLATGLHVHRNSAHSAGVGAIFDRVLTELVSKMRDMQMDKTELGCLRAIVLFNPDSKGLSNPAEVEALREKVYASLEAYCKHKYPEQPGRFAKLLLRLPALRSIGLKCLEHLFFFKLIGDTPIDTFLMEMLEAPHQMT
notes: retinoid X receptor alpha (RXRα) LBD, human, UniProt P19793-1, residues 226-462; only the fractions eluting as monomer in the second SEC were used; also called RXRα as a fusion protein with sGFP; RXRα wt; source: E. coli T7 express, coexpressed with GroEL/ES, purified (Ni IMAC, TEV, two SEC steps); not shown: His10, N-terminal, cleaved; sGFP, N-terminal, kept
[1]
  stoichiometry N: 2
[2]
  Kd: 50 nM and 28 nM

B2: biotinylated RXRα LBD (N-terminal Avi-tag) (domain or fragment, human, UniProt P19793-1 226-462, looked up)
chain: ANEDMPVERILEAELAVEPKTETYVEANMGLNPSSPNDPVTNICQAADKQLFTLVEWAKRIPHFSELPLDDQVILLRAGWNELLIASFSHRSIAVKDGILLATGLHVHRNSAHSAGVGAIFDRVLTELVSKMRDMQMDKTELGCLRAIVLFNPDSKGLSNPAEVEALREKVYASLEAYCKHKYPEQPGRFAKLLLRLPALRSIGLKCLEHLFFFKLIGDTPIDTFLMEMLEAPHQMT
modifications: biotin on the Lys residue in the Avi-tag
notes: retinoid X receptor alpha (RXRα) LBD, human, UniProt P19793-1, residues 226-462; coupled to Tb-streptavidin in the assay; also called biotin-labeled RXRα LBD; source: E. coli T7 express, coexpressed with GroEL/ES, purified (Ni IMAC, TEV and BirA, monomeric avidin, SEC); not shown: His10, N-terminal, cleaved; Avi-tag, N-terminal, kept
sGFP-PPARα LBD
  Kd: 72 nM
sGFP-PPARβ/δ LBD
  Kd: 363 nM

B3: sGFP-PPARγ LBD:RXRα total mutant LBD (unlabeled) heterodimer (complex, human)
chain 1: PESADLRALAKHLYDSYIKSFPLTKAKARAILTGKTTDKSPFVIYDMNSLMMGEDKIKFKHITPLQEQSKEVAIRIFQGCQFRSVEAVQEITEYAKSIPGFVNLDLNDQVTLLKYGVHEIIYTMLASLMNKDGVLISEGQGFMTREFLKSLRKPFGDFMEPKFEFAVKFNALELDDSDLAIFIAVIILSGDRPGLLNVKPIEDIQDNLLQALELQLKLNHPESSQLFAKLLQKMTDLRQIVTEHVQLLQVIKKTETDMSLHPLLQEIYKDLY
chain 2: TSSANEDMPVERILEAELAVEPKTETYVEANMGLNPSSPNDPVTNICQAADKQLFTLTEWAERIPHFSELPLDDQTILLRAGWNELLIASFSHRSIAVKDGILLATGLHVHRNSAHSAGVGAIFDRVLTELVSKMRDMQMDKTELGCLRAIVLFNPDSKGLSNPAEVEALREKVYASLEAYCKHKYPEQPGRFAKLLLRLPALRSIGLKCLEHLFFFKLIGDTPIDTYLMRMLEAPHQMT
notes: PPARγ isoform 2 LBD, human, UniProt P37231-1, residues 234-505; RXRα LBD, human, residues 223-462, five AF-2 mutations; also called LBD:LBD heterodimer with RXRα; source: mixed from the purified E. coli proteins (100 nM sGFP-PPARγ LBD, RXRα total mutant LBD titrated); not shown: His10, N-terminal, cleaved; sGFP, N-terminal, kept; MBP, N-terminal, cleaved; His8, N-terminal, cleaved
[3]
  CBP-1 recruitment relative to full activation of monomeric PPARγ with rosiglitazone (%): 26%

B4: PPARδ: PPARδ LBD as fusion protein with N-terminal sGFP (protein)
chain: PQVADLKAFSKHIYNAYLKNFNMTKKKARSILTGKASHTAPFVIHDIETLWQAEKGLVWKQLVNGLPPYKEISVHVFYRCQCTTVETVRELTEFAKSIPSFSSLFLNDQVTLLKYGVHEAIFAMLASIVNKDGLLVANGSGFVTREFLRSLRKPFSDIIEPKFEFAVKFNALELDDSDLALFIAAIILCGDRPGLMNVPRVEAIQDTILRALEFHLQANHPDAQYLFPKLLQKMADLRQLVTEHAQMMQRIKKTETETSLHPLLQEIYKDMY
modifications: left off: His10, N-terminal, cleaved | sGFP, N-terminal, kept
RXRα LBD
  Kd: 363 nM

B5: PPARα: PPARα LBD as fusion protein with N-terminal sGFP (protein)
chain: SETADLKSLAKRIYEAYLKNFNMNKVKARVILSGKASNNPPFVIHDMETLCMAEKTLVAKLVANGIQNKEAEVRIFHCCQCTSVETVTELTEFAKAIPGFANLDLNDQVTLLKYGVYEAIFAMLSSVMNKDGMLVAYGNGFITREFLKSLRKPFCDIMEPKFDFAMKFNALELDDSDISLFVAAIICCGDRPGLLNVGHIEKMQEGIVHVLRLHLQSNHPDDIFLFPKLLQKMADLRQLVTEHAQLVQIIKKTESDAALHPLLQEIYRDMY
modifications: left off: His10, N-terminal, cleaved | sGFP, N-terminal, kept
RXRα LBD
  Kd: 72 nM
